Literature values, collected in PMC4546937.

Target: IL-13Ralpha1 (Homo sapiens) (UniProt P78552)
UniProt P78552, sequence (P78552 22-343): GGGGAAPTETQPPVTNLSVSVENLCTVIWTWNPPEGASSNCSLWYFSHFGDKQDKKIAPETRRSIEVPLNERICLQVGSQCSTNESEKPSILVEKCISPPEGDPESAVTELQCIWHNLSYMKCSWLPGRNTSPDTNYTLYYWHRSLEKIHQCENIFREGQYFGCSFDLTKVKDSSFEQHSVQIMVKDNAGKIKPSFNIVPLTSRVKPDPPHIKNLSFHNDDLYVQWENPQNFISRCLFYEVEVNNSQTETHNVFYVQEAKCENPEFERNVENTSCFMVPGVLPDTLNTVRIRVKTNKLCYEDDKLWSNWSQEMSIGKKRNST

**Q.** Which Kd does the source give for IL-13 (from UniProt P35225) here?
**A.** 30 nM
